We go through 13 molecules from patent publication US20220033520A1.

Substitutions are numbered along the chain they refer to. Numbers in names are those of the source.

B1: anti-BACE1 hIgG4 antibody, Fc modification T94 (M252Y/N286E/N434Y) (antibody, part only; not given: Anti-BACE1 variable domains, not shown: another chain or arm of the molecule)
Fc: PAPEFLGGPSVFLFPPKPKDTLYISRTPEVTCVVVDVSQEDPEVQFNWYVDGVEVHEAKTKPREEQFNSTYRVVSVLTVLHQDWLNGKEYKCKVSNKGLPSSIEKTISKAKGQPREPQVYTLPPSQEEMTKNQVSLTCLVKGFYPSDIAVEWESNGQPENNYKTTPPVLDSDGSFFLYSRLTVDKSRWQEGNVFSCSVMHEALHYHYTQKSLSLSLGK
B2: anti-Abeta hIgG4 antibody, Fc modification Q6 (M252Y/M428L/N434Y/Y436I) (antibody, part only; not given: anti-Abeta variable domains, not shown: another chain or arm of the molecule)
Fc: B1 Fc with E57N, M199L, Y207I
B3: anti-BACE1 hIgG4 antibody, Fc modification Q6 (M252Y/M428L/N434Y/Y436I) (antibody, part only; not given: anti-BACE1 variable domains, not shown: another chain or arm of the molecule)
Fc: B1 Fc with E57N, M199L, Y207I
B4: anti-BACE1 hIgG4 antibody, Fc modification T3 (M252Y/Q311I/N434Y) (antibody, part only; not given: Anti-BACE1 variable domains, not shown: another chain or arm of the molecule)
Fc: B1 Fc with E57N, Q82I
B5: anti-BACE1 hIgG4 antibody, Fc modification Q95 (M252Y/T307Q/Q311A/N434Y) (antibody, part only; not given: Anti-BACE1 variable domains, not shown: another chain or arm of the molecule)
Fc: B1 Fc with E57N, T78Q, Q82A
B6: anti-Abeta hIgG4 antibody, Fc modification Q95 (M252Y/T307Q/Q311A/N434Y) (antibody, part only; not given: anti-Abeta variable domains, not shown: another chain or arm of the molecule)
Fc: B1 Fc with E57N, T78Q, Q82A
B7: anti-Abeta hIgG4 antibody, Fc modification D1 (M252Y/N434Y) (antibody, part only; not given: Anti-Abeta variable domains, not shown: another chain or arm of the molecule)
Fc: B1 Fc with E57N
B8: anti-Abeta hIgG4 antibody, Fc modification T3 (M252Y/Q311I/N434Y) (antibody, part only; not given: anti-Abeta variable domains, not shown: another chain or arm of the molecule)
Fc: B1 Fc with E57N, Q82I
B9: anti-Abeta hIgG4 antibody, Fc modification Q4 (M252Y/Q311I/M428L/N434Y) (antibody, part only; not given: Anti-Abeta variable domains, not shown: another chain or arm of the molecule)
Fc: B1 Fc with E57N, Q82I, M199L
B10: anti-Abeta hIgG4 antibody, Fc modification Q7 (M252Y/Q311A/N434Y/Y436I) (antibody, part only; not given: anti-Abeta variable domains, not shown: another chain or arm of the molecule)
Fc: B1 Fc with E57N, Q82A, Y207I
B11: anti-Abeta hIgG4 antibody, Fc modification T94 (M252Y/N286E/N434Y) (antibody, part only; not given: anti-Abeta variable domains, not shown: another chain or arm of the molecule)
Fc: B1 Fc
B12: anti-BACE1 hIgG4 antibody, Fc modification T1-IgG4 (M252Y/T307Q/N434Y) (antibody, part only; not given: anti-BACE1 variable domains, not shown: another chain or arm of the molecule)
Fc: B1 Fc with E57N, T78Q
B13: anti-BACE1 hIgG4 antibody, Fc modification Q7 (M252Y/Q311A/N434Y/Y436I) (antibody, part only; not given: anti-BACE1 variable domains, not shown: another chain or arm of the molecule)
Fc: B1 Fc with E57N, Q82A, Y207I

human FcRn (FCGRT and beta-2 microglobulin) expressed on MDCK II cells (human), sequence (P55899 24-365, chain 1 of 2): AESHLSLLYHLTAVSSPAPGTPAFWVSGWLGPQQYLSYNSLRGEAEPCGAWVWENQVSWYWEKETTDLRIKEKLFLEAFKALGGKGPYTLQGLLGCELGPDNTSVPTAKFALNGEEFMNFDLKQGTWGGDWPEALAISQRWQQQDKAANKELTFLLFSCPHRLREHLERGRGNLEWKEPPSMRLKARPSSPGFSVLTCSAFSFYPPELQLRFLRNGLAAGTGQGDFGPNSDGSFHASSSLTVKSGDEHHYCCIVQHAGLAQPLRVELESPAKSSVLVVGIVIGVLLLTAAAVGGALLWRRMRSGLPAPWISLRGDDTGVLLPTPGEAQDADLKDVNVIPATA
human FcRn (FCGRT and beta-2 microglobulin) expressed on MDCK II cells (human), sequence (P61769 21-119, chain 2 of 2, further chain): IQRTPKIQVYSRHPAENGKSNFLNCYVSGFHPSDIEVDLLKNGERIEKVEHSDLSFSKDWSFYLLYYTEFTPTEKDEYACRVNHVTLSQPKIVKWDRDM

The target in the first assay is human FcRn complex (FCGRT and beta-2 microglobulin), recombinant, purified (human) (UniProt P55899). Briefly: SPR, anti-human Fab capture, pH 6, steady state.
human FcRn complex (FCGRT and beta-2 microglobulin), recombinant, purified (human), sequence (P55899 24-297 limits assumed, chain 1 of 2): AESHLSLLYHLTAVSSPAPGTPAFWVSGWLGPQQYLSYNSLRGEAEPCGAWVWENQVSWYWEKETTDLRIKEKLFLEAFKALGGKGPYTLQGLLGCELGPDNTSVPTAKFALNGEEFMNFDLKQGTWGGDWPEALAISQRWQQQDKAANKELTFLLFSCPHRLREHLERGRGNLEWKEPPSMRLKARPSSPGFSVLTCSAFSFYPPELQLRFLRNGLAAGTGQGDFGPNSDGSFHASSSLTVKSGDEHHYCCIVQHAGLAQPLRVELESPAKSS
human FcRn complex (FCGRT and beta-2 microglobulin), recombinant, purified (human), sequence (P61769 21-119 limits assumed, chain 2 of 2, further chain): as the sequence (P61769 21-119, chain 2 of 2, further chain) above
For orientation: Kd means the constant that tells how readily two partners part at equilibrium. For B1, the Kd came out at 7.04 nM.
Consider B2, for which the Kd stood at 8 nM.
In the case of B3, the Kd was found to be 6.3 nM.
Still for that read-out and setting: next, B4: 7.4 nM; B5: 5.9 nM.
As to B6, the Kd came to 6.5 nM.
In the case of B7, the dissociation constant Kd was determined as 13.1 nM.
With B8, the Kd was found to be 9.2 nM.
Same read-out and setting: next, B9: 9.2 nM; B10: 7.4 nM.
For the molecule B11, the Kd came out at 8.8 nM.

For the next assay the target is unchanged. Briefly: SPR, protein L capture, pH 6, kinetic.
Broadly, the koff is the rate constant with which the complex falls apart. What is called kon is a measure of how fast the partners come together. For the molecule B12, the Kd amounted to 10.5 nM, the koff amounted to 0.00897 s⁻¹ and the kon came out at 856000 M⁻¹ s⁻¹.

A further assay has as its target cyno FcRn (cynomolgus monkey) (UniProt Q8SPV9). Briefly: affinity for cyno FcRn at 25 C, pH 7.4.
Molecule B6 returned a dissociation constant (Kd) of 215 nM.
B7 registered a Kd of 571 nM.
With B11, the Kd was found to be 369 nM.

The next assay has as its target human FcRn (FCGRT and beta-2 microglobulin) expressed on MDCK II cells (human) (UniProt P55899). Briefly: cell-based or functional assay.
Turning to B12, the Transcytosis Normalized to WT (normalized to WT) worked out at 80.

In another assay the target is cyno FcRn (cynomolgus monkey) (UniProt Q8SPV9). The experiment in a line: affinity for cyno FcRn at 25 C, pH 6.0.
cyno FcRn (cynomolgus monkey), sequence (Q8SPV9 24-297 limits assumed, chain 1 of 2): as the sequence (P55899 24-297 limits assumed, chain 1 of 2) above, with N39D, E44Q, G99S, S189G, S190N, L217M, S269T counted along it
cyno FcRn (cynomolgus monkey), sequence (Q8SPW0 21-119 limits assumed, chain 2 of 2, further chain): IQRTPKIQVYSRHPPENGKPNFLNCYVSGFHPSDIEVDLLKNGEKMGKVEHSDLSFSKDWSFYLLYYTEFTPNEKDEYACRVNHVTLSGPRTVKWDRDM
As for B6, the dissociation constant Kd is 8.2 nM.
On the same count and under the same terms, next, B7: 11.5 nM; B11: 10.1 nM.

The next assay concerns the target human FcRn complex (FCGRT and beta-2 microglobulin), recombinant, purified (human) (UniProt P55899). Briefly: SPR, anti-human Fab capture, pH 7.4, steady state. (In general: Surface plasmon resonance follows binding to a sensor surface in real time, without labels.)
Regarding B1, the Kd was found to be 305 nM.
For B2, the equilibrium dissociation constant (Kd) was 285 nM.
Take B3: the Kd was determined as 215 nM.
Turning to B4, the Kd worked out at 263 nM.
For B5, the Kd was 202 nM.
With B6, the Kd turned out to be 284 nM.
Consider B7, for which the Kd was 1020 nM.
For B8, the Kd came to 334 nM.
For the molecule B9, the Kd worked out at 486 nM.
Same read-out and setting: under B10 stands 273 nM; under B11, 406 nM.
In the case of B13, the Kd is 230 nM.

For a further assay the target is unchanged. The experiment in a line: SPR, protein L capture, pH 7.4, steady state.
Turning to B12, the Kd was 328 nM.
